Measurements taken from patent US20210107983A1 (Boehringer Ingelheim, published 2021).

T1: Cyno B7H6-His (cynomolgus monkey)
T1 construct: also called CyB7H6; cyB7-H6
T1 chain: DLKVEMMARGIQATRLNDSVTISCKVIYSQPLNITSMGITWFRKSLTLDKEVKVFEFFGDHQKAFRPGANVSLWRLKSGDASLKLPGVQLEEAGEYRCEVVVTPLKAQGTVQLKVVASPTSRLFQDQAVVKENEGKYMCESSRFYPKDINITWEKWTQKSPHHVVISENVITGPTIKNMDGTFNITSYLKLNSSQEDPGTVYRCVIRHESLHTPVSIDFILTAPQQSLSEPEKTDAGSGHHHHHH


How the values were obtained:
[1] = biological target: T2, Human CD3 E+G HuFc-6xHis (human); assay: SPR, CD3E+G-hFc immobilized, binder analyte
T2 construct: also called HuCD3E+G-hFc; huCD3
T2 sequence (chain, as listed by the source limits assumed): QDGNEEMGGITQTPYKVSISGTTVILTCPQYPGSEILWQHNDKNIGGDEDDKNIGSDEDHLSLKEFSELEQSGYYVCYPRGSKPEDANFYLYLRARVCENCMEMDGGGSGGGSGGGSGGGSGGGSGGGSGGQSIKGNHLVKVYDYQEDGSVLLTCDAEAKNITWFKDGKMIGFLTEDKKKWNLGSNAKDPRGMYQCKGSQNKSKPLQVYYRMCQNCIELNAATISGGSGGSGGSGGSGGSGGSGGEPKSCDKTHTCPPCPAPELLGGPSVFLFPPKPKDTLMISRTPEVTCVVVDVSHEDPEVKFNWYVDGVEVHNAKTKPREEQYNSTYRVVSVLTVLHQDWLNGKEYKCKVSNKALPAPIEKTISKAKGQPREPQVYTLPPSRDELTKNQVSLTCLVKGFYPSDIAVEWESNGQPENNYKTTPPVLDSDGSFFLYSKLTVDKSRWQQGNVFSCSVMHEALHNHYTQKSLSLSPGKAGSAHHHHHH
Method: To determine the affinity of the B7H6/CD3 binding protein to human and cyno CD3E+G-hFc, the experiment was performed on a Bio-Rad ProteOn™ XPR36 instrument. Briefly, HuCD3E+G-hFc and CyCD3E+G were amine-coupled on a ProteOn™ GLM sensor chip (Bio-Rad) and the B7H6/CD3 binding protein was flowed over the immobilized surface. The running buffer for this experiment and all serial dilutions were prepared in HBS-EP+. The GLM sensor chip was normalized according to Bio-Rad's recommendations. The sensor chip was activated with an equal mixture of EDC/s-NHS in the horizontal direction for 300 s at a flow rate of 30 μL/min HuCD3E+G-hFc was immobilized in the vertical direction at 0.4 μg/mL, 0.2 μg/mL and 0.1 μg/mL in 10 mM acetate pH 4.5 to L1, L2 and L3, respectively, for 300 s at a flow rate of 30 μL/min resulting in about 100 RU of HuCD3E+G-hFc on L1, 40 RU of HuCD3E+G-hFc on L2 and 0 RU of HuCD3E+G-hFc on L3. CyCD3E+G-hFc was immobilized in the vertical direction at 0.4 μg/mL, 0.2 μg/mL and 0.1 μg/mL in 10 mM acetate pH 4.5 to L4, L5 and L6, respectively, for 300 s at a flow rate of 30 μL/min resulting in about 385 RU of […], 170 RU of CyCD3E+G-hFc on L5 and 50 RU of CyCD3E+G-hFc on L6. The sensor chip was deactivated with 1M ethanolamine-HCl in the horizontal direction for 300 s at a flow rate of 30 μL/min.
(§1) The B7H6/CD3 binding protein analyte was injected horizontally over the immobilized surface for 300 s at a flow rate of 30 μL/min with a dissociation of 600 s. The concentrations of the B7H6/CD3 binding protein used were 0 nM, 1.2 nM, 3.7 nM, 11.1 nM, 33.3 nM and 100 nM.
The interspot (interactions with sensor surface) and blank (HBS-EP+ or 0 nM analyte) were subtracted from the raw data.

[2] = biological target: T1, Cyno B7H6-His; assay: SPR, binder captured on Protein A/G, B7H6 analyte
Method: (§2) To determine the affinity of human and cyno B7H6 and human B7H1 to B7H6/CD3 binding proteins, the experiment was performed on a Biacore™ 8K instrument (GE Healthcare Life Sciences). Briefly, the B7H6/CD3 binding protein was captured via Protein A/G. The running buffer for this experiment and all serial dilutions were prepared in HBS-EP+. The CM5 sensor chip was activated with an equal mixture of EDC/NHS across both flow cells for 420 s at a flow rate of 10 μL/min and immobilized with recombinant Protein A/G (50 μg/ml in 10 mM NaOAc, pH 4.5) across all flow cells for 420 s at a flow rate of 10 μL/min resulting in about 2500 RU of Protein A/G on the surface. The sensor chip was deactivated with 1M ethanolamine-HCl across all flow cells for 420 s at a flow rate of 10 μL/min.
(§3) About 700 RU of the B7H6/CD3 binding protein was captured on flow cell 2 of the Protein A/G surface for 60 s at a flow rate of 10 μL/min. The analytes HuB7H6, CyB7H6 and HuB7H1 were injected across both flow cells over captured B7H6/CD3 binding protein for 300 s at a flow rate of 30 μL/min with a dissociation of 1200 s. The concentrations of HuB7H6 and CyB7H6 were 0 nM, 6.25 nM, 12.5 nM, 25 nM, 50 nM and 100 nM. The concentrations of HuB7H1 were 0 nM and 1 μM. The surface was regenerated by injecting 10 mM glycine-HCl, pH 1.5 for 20 s at a flow rate of 30 μL/min across both flow cells.
(§4) The reference flow cell 1 (interactions with sensor surface) and blank (HBS-EP+ or 0 nM analyte) were subtracted from the raw data.

[3] = biological target: T1, Cyno B7H6-His; assay: ratio of SPR KDs cyno/human
Method: as §3, §4, §1

[4] = biological target: T3, Human B7H1 (human, UniProt Q9NZQ7 20-239); assay: SPR, binder captured on Protein A/G, HuB7H1 analyte
T3 construct: also called HuB7H1; huB7-H1
T3 sequence (Q9NZQ7 other isoform, or with tags, fused parts or gaps limits assumed): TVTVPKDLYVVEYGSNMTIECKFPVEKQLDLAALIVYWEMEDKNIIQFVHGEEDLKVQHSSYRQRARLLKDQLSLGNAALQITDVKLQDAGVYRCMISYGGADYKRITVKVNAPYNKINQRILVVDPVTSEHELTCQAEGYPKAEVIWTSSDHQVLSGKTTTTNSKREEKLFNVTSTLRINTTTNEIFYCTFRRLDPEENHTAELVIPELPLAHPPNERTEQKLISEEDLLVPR
Method: as §2, §3, §4

[5] = biological target: T4, trypsin inhibitor from Glycine max soybean (Glycine max (soybean)); assay: SPR, 1 µM binder over immobilized trypsin inhibitor
T4 construct: unrelated negatively charged protein, amine-coupled to the chip
T4 sequence (P01070 25-205): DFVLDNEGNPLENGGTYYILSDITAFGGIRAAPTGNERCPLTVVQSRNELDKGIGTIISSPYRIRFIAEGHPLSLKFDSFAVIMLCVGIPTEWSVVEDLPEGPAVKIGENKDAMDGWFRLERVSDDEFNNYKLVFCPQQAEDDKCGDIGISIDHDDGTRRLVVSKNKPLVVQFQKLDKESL
Method: (§5) The experiment was performed on a Biacore® T200 SPR system (GE Healthcare Life Sciences). The dilution, surface preparation, and binding experiments were performed at 25° C. in 1×HBS-EP buffer prepared from 10×HBS-EP. The flow rate for both the immobilization protocol and binding experiment was at 5 μL/min.
(§6) To prepare the surface for the non-specific binding experiment, chicken egg white lysozyme and trypsin inhibitor from Glycine max soybean were coupled manually to a Biacore® series S CM5 sensor chip (GE Healthcare sciences) with the surface density of 3000-5000 RU using the amine coupling kit according to the manufacture instructions. Samples were prepared at 1 μM in 1×HBS-EP buffer. The samples were injected over activated surfaces with a 10 min association and 15 min dissociation. The data was collected using Biacore® T200 Control Software version 2.0.1 and analyzed using Biacore® T200 Evaluation Software version 3.0 (GE Healthcare Life Sciences).

[6] = biological target: T5, chicken egg white lysozyme (chicken, UniProt P00698 19-147); assay: SPR, 1 µM binder over immobilized lysozyme
T5 construct: unrelated positively charged protein, amine-coupled to the chip; also called Lysozyme (positive)
T5 sequence (P00698 19-147): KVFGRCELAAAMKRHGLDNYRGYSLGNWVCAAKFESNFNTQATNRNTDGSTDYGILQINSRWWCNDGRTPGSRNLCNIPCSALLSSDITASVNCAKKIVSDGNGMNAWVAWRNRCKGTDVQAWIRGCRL
Method: as §5, §6

Kd [1]	Kd [2]	cy/hu B7-H6 [3]	binding result [4]	Non-specific binding (RU) [5]	Non-specific binding (RU) [6]	Binder
4.1 nM	4.6 nM	1.5	no binding (tested: 1 µM)	30.6 RU	7.2 RU	B7H6#13/CD3#1 (bispecific antibody, human IgG1, kappa, lambda, L234A L235A, scFab-Fc heterodimer, one B7H6 chain and one CD3 chain) chain 1: DIQMTQSPSSLSASVGDRVTITCKASQNVGKYVAWYQQKPGKAPKSLIYSASNRYDGVPSRFSGSGSGTDFTLTISSLQPEDFTTYYCQQYISYPLTFGAGTKLEIKRTVAAPSVFIFPPSDEQLKSGTASVVCLLNNFYPREAKVQWKVDNALQSGNSQESVTEQDSKDSTYSLSSTLTLSKADYEKHKVYACEVTHQGLSSPVTKSFNRGECGGGGSEGKSSGSGSESKSTEGKSSGSGSESKSTGGGGSQVQLVQSGAEVKKPGASVKVSCKASGYTFTSYWMNWMKQAPGQGLEWMGGIYLNGDSTDYNEKFKGRVTMTVDTSTSTVYMELSSLRSEDTAVYYCTRRGDYFGDFWGQGTLVTVSSASTKGPSVFPLAPSSKSTSGGTAALGCLVKDYFPEPVTVSWNSGALTSGVHTFPAVLQSSGLYSLSSVVTVPSSSLGTQTYICNVNHKPSNTKVDKRVEPKSCDKTHTCPPCPAPEAAGGPSVFLFPPKPKDTLMISRTPEVTCVVVDVSHEDPEVKFNWYVDGVEVHNAKTKPREEQYNSTYRVVSVLTVLHQDWLNGKEYKCKVSNKALPAPIEKTISKAKGQPREPQVYTLPPSREEMTKNQVSLWCLVKGFYPSDIAVEWESNGQPENNYKTTPPVLDSDGSFFLYSKLTVDKSRWQQGNVFSCSVMHEALHNHYTQKSLSLSPG chain 2: EAVVTQEPSLTVSPGGTVTLTCRSSTGAVTTSNYANWVQEKPGQLPRGLIGGTNKRAPWVPARFSGSLLGGKAALTLSGAQPEDEAEYFCALWYSNLWVFGGGTKLTVLGQPKAAPSVTLFPPSSEELQANKATLVCLISDFYPGAVKVAWKADGSPVNTGVETTTPSKQSNNKYAASSYLSLTPEQWKSHRSYSCQVTHEGSTVEKTVAPAECSGGGGSEGKSSGSGSESKSTEGKSSGSGSESKSTGGGGSEVQLVESGGGLVQPGGSLKLSCAASGFTFNTYAMNWVRQAPGKGLEWVARIRSKYNNYATYYADSVKDRFTISRDDSKNTAYLQMNNLKTEDTAVYYCVRHGNFGNSYVSWFAYWGQGTLVTVSAASTKGPSVFPLAPSSKSTSGGTAALGCLVKDYFPEPVTVSWNSGALTSGVHTFPAVLQSSGLYSLSSVVTVPSSSLGTQTYICNVNHKPSNTKVDKRVEPKSCDKTHTCPPCPAPEAAGGPSVFLFPPKPKDTLMISRTPEVTCVVVDVSHEDPEVKFNWYVDGVEVHNAKTKPREEQYNSTYRVVSVLTVLHQDWLNGKEYKCKVSNKALPAPIEKTISKAKGQPREPQVYTLPPSREEMTKNQVSLSCAVKGFYPSDIAVEWESNGQPENNYKTTPPVLDSDGSFFLVSKLTVDKSRWQQGNVFSCSVMHEALHNRFTQKSLSLSPG
4.2 nM	0.6 nM	5.9	no binding (tested: 1 µM)	32.7 RU	8.1 RU	B7H6#14/CD3#1 (bispecific antibody, human IgG1, kappa, lambda, L234A L235A, scFab-Fc heterodimer, one B7H6 chain and one CD3 chain) chain 1: DIQMTQSPSSLSASVGDRVTITCKASQNVGKYVAWYQQKPGKAPKSLIYSASNRYDGVPSRFSGSGSGTDFTLTISSLQPEDFATYFCQQYISYPLTFGAGTKLEIKRTVAAPSVFIFPPSDEQLKSGTASVVCLLNNFYPREAKVQWKVDNALQSGNSQESVTEQDSKDSTYSLSSTLTLSKADYEKHKVYACEVTHQGLSSPVTKSFNRGECGGGGSEGKSSGSGSESKSTEGKSSGSGSESKSTGGGGSQVQLVQSGAEVKKPGASVKVSCKASGYTFTNYWMNWMKQAPGQGLEWIGGIYLNGDSTDYNEKFKGKVTMTVDTSTSTVYMELSSLRSEDTAVYYCTRRGDYFGDFWGQGTLVTVSSASTKGPSVFPLAPSSKSTSGGTAALGCLVKDYFPEPVTVSWNSGALTSGVHTFPAVLQSSGLYSLSSVVTVPSSSLGTQTYICNVNHKPSNTKVDKRVEPKSCDKTHTCPPCPAPEAAGGPSVFLFPPKPKDTLMISRTPEVTCVVVDVSHEDPEVKFNWYVDGVEVHNAKTKPREEQYNSTYRVVSVLTVLHQDWLNGKEYKCKVSNKALPAPIEKTISKAKGQPREPQVYTLPPSREEMTKNQVSLWCLVKGFYPSDIAVEWESNGQPENNYKTTPPVLDSDGSFFLYSKLTVDKSRWQQGNVFSCSVMHEALHNHYTQKSLSLSPG chain 2: EAVVTQEPSLTVSPGGTVTLTCRSSTGAVTTSNYANWVQEKPGQLPRGLIGGTNKRAPWVPARFSGSLLGGKAALTLSGAQPEDEAEYFCALWYSNLWVFGGGTKLTVLGQPKAAPSVTLFPPSSEELQANKATLVCLISDFYPGAVKVAWKADGSPVNTGVETTTPSKQSNNKYAASSYLSLTPEQWKSHRSYSCQVTHEGSTVEKTVAPAECSGGGGSEGKSSGSGSESKSTEGKSSGSGSESKSTGGGGSEVQLVESGGGLVQPGGSLKLSCAASGFTFNTYAMNWVRQAPGKGLEWVARIRSKYNNYATYYADSVKDRFTISRDDSKNTAYLQMNNLKTEDTAVYYCVRHGNFGNSYVSWFAYWGQGTLVTVSAASTKGPSVFPLAPSSKSTSGGTAALGCLVKDYFPEPVTVSWNSGALTSGVHTFPAVLQSSGLYSLSSVVTVPSSSLGTQTYICNVNHKPSNTKVDKRVEPKSCDKTHTCPPCPAPEAAGGPSVFLFPPKPKDTLMISRTPEVTCVVVDVSHEDPEVKFNWYVDGVEVHNAKTKPREEQYNSTYRVVSVLTVLHQDWLNGKEYKCKVSNKALPAPIEKTISKAKGQPREPQVYTLPPSREEMTKNQVSLSCAVKGFYPSDIAVEWESNGQPENNYKTTPPVLDSDGSFFLVSKLTVDKSRWQQGNVFSCSVMHEALHNRFTQKSLSLSPG
